The target of series [1] is S1PR2 ECL3 peptide ECL3 (Homo sapiens) (UniProt O95136). The series can be described thus: MST. The settings on record: cited from earlier work.
Series [2] has as its target S1PR2 ECL2 peptide ECL2 (Homo sapiens) (UniProt O95136). The series can be described thus: MST. The settings on record: cited from earlier work.
Series [3] concerns the molecule itself. The series can be described thus: pulsed field gradient NMR diffusion; Nogo-A-Δ20 at 30 μM or 560 μM, without or with TCEP (5 mM or 2 mM), pH 7.4, 6°C; diffusion coefficients compared.

For Nogo-A-Δ20 Δ20 (from UniProt Q9JK11), the Kd (in general, the free concentration of one partner at which half of the binding sites on the other are occupied at equilibrium, for simple one-to-one binding) was 350 nM in series [1] and 280 nM in series [2].

B1: Nogo-A-Δ20 (residues 544–725 of the rat Nogo-A sequence) (domain or fragment, UniProt Q9JK11-1 544-725, looked up)
chain: TGTKIAYETKVDLVQTSEAIQESLYPTAQLCPSFEEAEATPSPVLPDIVMEAPLNSLLPSAGASVVQPSVSPLEAPPPVSYDSIKLEPENPPPYEEAMNVALKALGTKEGIKEPESFNAAVQETEAPYISIACDLIKETKLSTEPSPDFSNYSEIAKFEKSVPEHAELVEDSSPESEPVDLF
notes: Nogo-A (reticulon 4-A), rat, 1163 residues; Nogo-A-Δ20 region, residues 544-725 (182 residues), numbered as in the rat Nogo-A protein; the T7-tag lies between the N-terminal His6-tag and Nogo-A-Δ20; The N-terminal His6-tag was removed with thrombin; also called 15N-labelled Nogo-A-Δ20; [13C, 15N]-Nogo-A-Δ20; not shown: His6, N-terminal, cleaved; T7-tag, N-terminal, kept; His6, C-terminal, kept
Regarding B1, the binding result in series [3] was “binds”.

The values are drawn from article PMC5017703, “The Neurite Outgrowth Inhibitory Nogo-A-Δ20 Region Is an Intrinsically Disordered Segment Harbouring Three Stretches with Helical Propensity” (PLoS ONE, 2016).
